Test results as given in patent US7943340B2, “Fungal dipeptidyl peptidase IV (DPPIV) enzyme for reagent use” (priority 2003, dated 2011).
Entries after “also recorded” stand apart in the source; their conditions may differ.

Key:
[1] = Aminopeptidase activity assay with fluorogenic aminoacyl-AMC substrates; type: biochemical
Description: (§1) Aminopeptidase activity was determined using different fluorogenic aminoacyl-4-methylcoumaryl-7-amide derivatives of peptides and the internally quenched fluorogenic substrate Lys(Abz)-Pro-Pro-pNA for specific determination of aminopeptidase P activity. Stockel et al, Adv Exp. Med. Biol. 421:31-35 (1997). All substrates were from Bachem (Bubendorf, Switzerland). Substrate stock solutions were prepared at 0.1 M according to the recommendations of the manufacturer and stored at −20° C. The reaction mixture contained a concentration of 5 mM substrate and enzyme preparation (between 56 and 2,662 ng per assay depending on the cleavage activity of each enzyme for the substrates) in 25 μl of 50 mM Tris-HCl buffer adjusted at the optimal pH for each LAP (between 7 and 8). After incubation at 37° C. for 60 min, the reaction was terminated by adding 5 μl of glacial acetic acid and the reaction mixture was diluted with 3.5 ml of water. The released 7-amino-4-methylcoumarin (AMC) was measured using a spectrofluorophotometer (Perkin Elmer LS-5 fluorometer, Zurich, Switzerland) at an excitation wavelength of 370 nm and an emission wavelength of 460 nm. A standard curve made with synthetic AMC was used to assess the released AMC. The released diprolyl-p-nitroanilide was measured at an excitation wavelength of 310 nm and an emission wavelength of 410 nm. The LA activities were expressed in mnoles of released AMC or pNA/min/μg protein.
Table 15 details the hydrolytic activity of different LAPs toward various aminoacyl-MCA comparison (%) to Leu-MCA used as a standard.

[2] = Aminopeptidase P activity assay; type: biochemical; settings: substrate Lys(Abz)-Pro-Pro-pNA, 5 mM, 37° C., 60 min
Description: as §1

B1: fuLAP1: A. fumigatus leucine aminopeptidase, 388 amino acid residues (SEQ ID NO: 12) (protein, listed as Aspergillus fumigatus)
chain: MKVLTAIALSAIAFTGAVAAVITQEAFLNNPRIHHDQEKYLIELAPYRTRWVTEEEKWALKLDGVNFIDITEEHNTGFYPTLHSASYVKYPPKMQYAEEVAALNKNLSKENMKANLERFTSFHTRYYKSQTGIRSATWLFDQVQRVVSESGAAEYGATVERFSHPWGQFSIIARIPGRTNKTVVLGAHQDSINLFLPSILAAPGADDDGSGTVTILEALRGLLQSDAIAKGNASNTVEFHWYSAEEGGMLGSQAIFSNYKRNRREIKAMLQQDMTGYVQGALNAGVEEAIGIMVDYVDQGLTQFLKDVVTAYCSVGYLETKCGYACSDHTSASKYGYPAAMATEAEMENTNKKIHTTDDKIKYLSFDHMLEHAKLSLGFAFELAFAPF
In the case of B1, the “hydrolysis of Leu-AMC” value [1] is reported as “efficiently hydrolyzed”, the “preference for aminoacyl-AMC substrates compared to Leu-AMC” value ([1]; Leu-AMC used as a reference) is reported as “appreciated Arg-, Val-, and Phe-AMC; also recorded: common preference for Leu-AMC as a substrate” and the “hydrolytic activity toward Ala-AMC in comparison (%) to Leu-MCA” value ([1]; substrate Ala-AMC, 5 mM, 37° C., 60 min) is reported as 4.7%. The “hydrolytic activity toward Arg-AMC in comparison (%) to Leu-MCA” value ([1]; substrate Arg-AMC, 5 mM, 37° C., 60 min) was 53.9%, the “hydrolytic activity toward Asn-AMC in comparison (%) to Leu-MCA” value ([1]; substrate Asn-AMC, 5 mM, 37° C., 60 min) was 29.4% and the “hydrolytic activity toward Asp-AMC in comparison (%) to Leu-MCA” value ([1]; substrate Asp-AMC, 5 mM, 37° C., 60 min) was 0.8%. For the same molecule, the “hydrolytic activity toward Cys-AMC in comparison (%) to Leu-MCA” value ([1]; substrate Cys-AMC, 5 mM, 37° C., 60 min) was 5.0%, the “hydrolytic activity toward Gln-AMC in comparison (%) to Leu-MCA” value ([1]; substrate Gln-AMC, 5 mM, 37° C., 60 min) was 44.9% and the “hydrolytic activity toward Glu-AMC in comparison (%) to Leu-MCA” value ([1]; substrate Glu-AMC, 5 mM, 37° C., 60 min) was 0.0%. The “hydrolytic activity toward Gly-AMC in comparison (%) to Leu-MCA” value ([1]; substrate Gly-AMC, 5 mM, 37° C., 60 min) was 0.8%, the “hydrolytic activity toward Gly-Pro-AMC in comparison (%) to Leu-MCA” value ([1]; substrate Gly-Pro-AMC, 5 mM, 37° C., 60 min) was 5.4% and the “hydrolytic activity toward His-AMC in comparison (%) to Leu-MCA” value ([1]; substrate His-AMC, 5 mM, 37° C., 60 min) was 0.8%. The “hydrolytic activity toward Hyp-AMC in comparison (%) to Leu-MCA” value ([1]; substrate Hyp-AMC, 5 mM, 37° C., 60 min) was 3.9%, the “hydrolytic activity toward Ile-AMC in comparison (%) to Leu-MCA” value ([1]; substrate Ile-AMC, 5 mM, 37° C., 60 min) was 13.2% and the “hydrolytic activity toward Leu-AMC in comparison (%) to Leu-MCA used as a standard” value ([1]; substrate Leu-AMC (standard), 5 mM, 37° C., 60 min) was 100.0%. The “hydrolytic activity toward Lys-AMC in comparison (%) to Leu-MCA” value ([1]; substrate Lys-AMC, 5 mM, 37° C., 60 min) was 7.7%, the “hydrolytic activity toward Met-AMC in comparison (%) to Leu-MCA” value ([1]; substrate Met-AMC, 5 mM, 37° C., 60 min) was 116.9% and the “hydrolytic activity toward Phe-AMC in comparison (%) to Leu-MCA” value ([1]; substrate Phe-AMC, 5 mM, 37° C., 60 min) was 163.7%. The “hydrolytic activity toward Pro-AMC in comparison (%) to Leu-MCA” value ([1]; substrate Pro-AMC, 5 mM, 37° C., 60 min) was 12.0%, the “hydrolytic activity toward Pyr-AMC in comparison (%) to Leu-MCA” value ([1]; substrate Pyr-AMC, 5 mM, 37° C., 60 min) was 0.0% and the “hydrolytic activity toward Ser-AMC in comparison (%) to Leu-MCA” value ([1]; substrate Ser-AMC, 5 mM, 37° C., 60 min) was 10.3%. The “hydrolytic activity toward Thr-AMC in comparison (%) to Leu-MCA” value ([1]; substrate Thr-AMC, 5 mM, 37° C., 60 min) was 5.1%, the “hydrolytic activity toward Val-AMC in comparison (%) to Leu-MCA” value ([1]; substrate Val-AMC, 5 mM, 37° C., 60 min) was 27.6% and the “hydrolytic activity toward Lys(Abz) Pro-PropNA in comparison (%) to Leu-MCA” value [2] was 0.0%.
